Assay results reported in US20100305304A1 (COMPLIX, published 2010).

B1: Q2aI peptide (Ac-MSIEEIQKQIAAIQKQIAAIQKQIYRMTP-NH2) (peptide)
peptide: Ac-MSIEEIQKQIAAIQKQIAAIQKQIYRMTP-NH2
notes: Synthetic peptide; also called untagged peptide
B2: reference peptide Q2a (Ac-MSIEEIQKQQAAIQKQIAAIQKQIYRMTP-NH2) (peptide)
peptide: Ac-MSIEEIQKQQAAIQKQIAAIQKQIYRMTP-NH2
notes: Synthetic peptide; Three copies associate non-covalently into a parallel alpha-helical coiled coil; also called untagged peptide

Experiments:
[1] = target: the molecule itself; test: self-association of the peptide chains into a homotrimer; sedimentation equilibrium ultracentrifugation
[2] = target: the molecule itself; test: self-association of the peptide chains into a homotrimer; CD thermal unfolding curve fitted to a monomer-trimer equilibrium
Description: The said synthesized peptide was dissolved at a concentration of 292 microM in 20 mM phosphate buffer (PBS), 150 mM NaCl, pH 7.2. The CD spectra were measured between […], at 5 and 90 degrees Celsius (FIG. 3). The spectrum at 5 degrees Celsius was indicative of a high alpha-helical secondary structure content, in agreement with the expectation that all heptad regions, but not all of the flanking residues, would assemble as alpha-helical coiled coils.
To analyse whether the temperature-induced transition between helical and nonhelical states was reversible, a forward (up) and backward (down) thermal scan was performed on the same sample, by recording the CD signal at […] as a function of temperature at a scanning rate of about 1 degree Celsius per minute (FIG. 4). It was observed that the up and down scans almost perfectly coincided, thereby confirming the quantitative unfolding and refolding of the peptides in the sample.
FIG. 5 represents fitting of a theoretic equation for trimeric association to experimental data. The experimental data are taken from FIG. 4, curve labeled “UP”. The theoretic equations used are listed supra. The fitted parameters (fitting results) are listed at the right in FIG. 5. “Transit. T” corresponds to Tₜ, but is expressed here in degrees Celsius. The parameter “delta Cₚ” was kept constant at 3.0 kJ mol⁻¹ K⁻¹. […]

Protein | binding result [1] | binding result [2]
B1 | binds | 
B2 |  | binds
